Test results reported in patent publication US9127038B2, “Kisspeptide-pentasaccharide conjugates” (Merck Sharp & Dohme Corp., priority 2011, dated 2015).
Structures can show the parent of a compound that is named as a salt. Where two headings read alike, the source gives them in different places. Blank lines part the entries; values can stand above or below the compound they belong to. Square brackets hold non-standard residues; d marks the D form. Peptide text beside a SMILES is read from it. Arg(Me) = CNC(=N)NCCC[C@H](N)C(=O)O; azaGly = NNC(=O)O

What was measured:
[1] = In vitro stability in human serum (LC/MS/MS); conditions: for half-life at 750 nM: human
Experimental: Test compound is added to 1.5 mL human serum in a 96-wells deepwell plate in a final concentration of 750 nM. The compound is mixed and immediately thereafter a 100 μl sample is harvested in a 96-wells 2D-tuberack (T=0 sample). The 2 D-tubes are closed with rubber tube caps and the sample plate is stored at −20° CF. in the freezer. The deepwell plate is put into an incubator which was set at humidified (95%) atmosphere at 5-7% CO2 and 37° C. for an incubation period of maximum 240 h. During this incubation period, samples of 100 μl are collected on various time intervals, dependent on the test compound used; time points 0, 1, 2, 3, 6, 24, 48, 72 h in case of Kisspeptides and 0, 3, 6, 24, 48, 72, 168, 240 h in case of kisspeptide-pentasaccharide conjugates. Sample plates are put on ice in case of sampling and stored at −20° C. until analysis by LC/MS/MS.
For LC-MS/MS analysis, the compounds are separated over an XTerra RP8 column and using a gradient mobile phase of ammonium acetate buffer and acetonitrile at a fixed column temperature. MS/MS detection is done with a triple quadrupole mass spectrometer and employing negative ion electrospray ionization. The mass spectrometer is set up to achieve a known degree of in source fragmentation, where the initially formed multiply charged negative ions lose one or more SO3 molecules. The most abundant of these secondary ions are then subjected to a common MS/MS experiment in which a single SO3 loss is monitored. The Q1 and Q3 mass filter settings for this MS/MS experiment have commonly been determined in method development. […] Internal standardization is accomplished by adding a different conjugate of approximately the same size to the bioanalytical samples.
The rate of compound loss is expressed as a half-life (plasma t^1/2). The t^1/2 for the test compound can be determined by plotting the natural logarithm (In) of the measured concentrations against time and fitting the line through all data points. The gradient of this line is the first order rate constant (k) for substrate disappearance and is determined by regression analysis. The rate constant is converted to a half-life according to the following equation: In vitro half-life(t^1/2)=−ln 2/k

human KISS-receptor = biological target: T1, human KISS-receptor (Homo sapiens, UniProt Q969F8); experiment: NFAT-regulated luciferase reporter gene assay in CHO-k1 cells, agonist activity; format: cell-based
T1 construct: expressed in transfected cells; host or cells: CHO-k1 cells that also express mitochondrially targeted aequorin, Gα16 and an NFAT-luciferase reporter
T1 sequence (Q969F8 whole entry): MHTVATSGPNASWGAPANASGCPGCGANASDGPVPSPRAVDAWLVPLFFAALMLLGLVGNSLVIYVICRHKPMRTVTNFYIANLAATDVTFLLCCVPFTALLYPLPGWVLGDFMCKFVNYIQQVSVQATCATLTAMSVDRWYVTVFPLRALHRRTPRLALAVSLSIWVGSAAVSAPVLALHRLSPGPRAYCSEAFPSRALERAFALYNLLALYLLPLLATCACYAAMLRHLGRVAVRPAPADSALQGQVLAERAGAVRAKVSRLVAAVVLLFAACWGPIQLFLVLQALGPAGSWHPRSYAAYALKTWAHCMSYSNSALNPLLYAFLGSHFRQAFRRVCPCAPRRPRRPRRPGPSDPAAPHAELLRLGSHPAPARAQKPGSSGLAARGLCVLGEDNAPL
Experimental: CHO-k1 cells were used that expressed the mitochondrially targeted aequorine and Gα16 (from Euroscreen, Brussels, Belgium), a Nuclear Factor of Activated T-cells-responsive element (NFAT) under the control of a promoter directing the expression of a firefly luciferase reporter gene (pNFAT-TALuc obtained from Clontech, Mountain View, Calif.), and the human GPR54-R Hygro(+)-hGPR54WT c4; MSD). These cells were cultured in Dulbecco's Modified Eagle Medium: Nutrient Mixture F-12 (DMEM/F12) (Invitrogen, Carlsbad, Calif.), supplemented with 10% (vol/vol) filtered bovine serum (Hyclone, Thermo Fisher Scientific, Waltham, Mass.), 100 U/ml penicillin G, 100 μg/ml streptomycin, 400 μg/ml Geneticin and 400 μg/ml Hygromycin (Invitrogen). […] Kisspeptin-10 was used as a standard. […] When the conjugates were tested in the presence of a final percentage of 20% human serum, 10 μl assay medium containing 60% human serum (Sigma-Aldrich, #H4522) was added to the wells. In the absence of human serum, 10 μl of assay medium was added. Cells were harvested and diluted to a concentration of 7.5E5 cells/ml in assay medium without 0.1% BSA. 10 μl of cell solution was added to the compound wells. After incubation for 4 hours in a humidified atmosphere at 5% CO2 and 37° C., the plate was left at room temperature for 30 minutes. Subsequently, 15 μl of Steadylite™ solution (PerkinElmer, Boston, Mass.) was added and the cells, protected from light, were allowed to lyse for 30 min at room temperature. Luminescence, indicated as relative luminescence units (RLU), was measured on an Envision Multilabel reader (PerkinElmer).

in vivo = experiment: in vivo
Experimental: The pharmacokinetics of conjugate C8 were determined after administration of 40 nmol/kg IV in male and of 200 nmol/kg SC in female Sprague-Dawley rats.

[2] = cited from earlier work
[3] = after clomiphene citrate treatment; cited from earlier work
[4] = female, Sprague-Dawley, rat, plasma, sc, 0.2 umol/kg
[5] = female, Sprague-Dawley, rat, plasma, sc, 200 nmol/kg
[6] = female, Sprague-Dawley, rat, plasma, sc, 0.6 umol/kg
[7] = male, Sprague-Dawley, rat, plasma, iv, 40 nmol/kg
[8] = absence of human serum, read-out: pEC50 (converted)
[9] = presence of 20% human serum, read-out: pEC50 serum (converted)

SMILES: CNC(=N)NCCC[C@H](NC(=O)[C@H](CC(C)C)NC(=O)NNC(=O)[C@H](Cc1ccccc1)NC(=O)[C@@H](NC(=O)[C@H](CC(N)=O)NC(=O)[C@H](Cc1c[nH]c2ccccc12)NC(=O)[C@H](CC(N)=O)NC(=O)[C@@H](Cc1ccc(O)cc1)NC(=O)CCCCn1cc(CCC(=O)NCCOCCOCCOCCO[C@H]2[C@H](OC)[C@@H](OC)[C@@H](O[C@H]3[C@H](OC)[C@@H](OC)[C@H](O[C@H]4[C@H](OS(=O)(=O)O)[C@@H](OS(=O)(=O)O)[C@@H](O[C@H]5[C@H](OC)[C@@H](OC)[C@H](O[C@H]6[C@H](OS(=O)(=O)O)[C@@H](OS(=O)(=O)O)[C@@H](OC)O[C@@H]6COS(=O)(=O)O)O[C@H]5C(=O)O)O[C@@H]4COS(=O)(=O)O)O[C@@H]3C(=O)O)O[C@@H]2COS(=O)(=O)O)nn1)C(C)O)C(=O)N[C@@H](Cc1ccccc1)C(N)=O (some centres unmarked) [Conjugate C8]
half-life at 750 nM [1]: > 240 h
EC50 (human KISS-receptor; pEC50, absence of human serum): 0.158 nM
EC50 (human KISS-receptor; pEC50 serum, presence of 20% human serum): 7.24 nM
AUCN(0-∞) IV (in vivo; 40 nmol/kg IV, male rats): 60.4 nM·kg·h/µg
AUCN(0-∞) SC (in vivo; 200 nmol/kg SC, female rats): 56.5 nM·kg·h/µg
F (in vivo; 200 nmol/kg SC, female rats): 94%
AUC(0-inf) (in vivo; [4]): 38.7 µM·h
Cmax (in vivo; [4]): 2310 nM
level at time molar at 24 h (in vivo; [4]): 490 nM
Tmax (in vivo; female, Sprague-Dawley, rat, plasma, sc, 0.2 umol/kg, Tmax, SC 0.2 μmol/kg, female rats): 2.7 h
Cmax (in vivo; [5]): 2310 nM
bioavailability (in vivo; [5]): 93.5%
Tmax (in vivo; female, Sprague-Dawley, rat, plasma, sc, 200 nmol/kg, Tmax, 200 nmol/kg SC, female rats): 2.7 h
Tmax (in vivo; female, Sprague-Dawley, rat, plasma, sc, 200 nmol/kg, tmax, following subcutaneous administration): 2.7 to 3.3 h
AUC(0-inf) (in vivo; [6]): 90.5 µM·h
Cmax (in vivo; [6]): 5180 nM
level at time molar at 24 h (in vivo; [6]): 1100 nM
Tmax (in vivo; female, Sprague-Dawley, rat, plasma, sc, 0.6 umol/kg, Tmax, SC 0.6 μmol/kg, female rats): 1.7 h
Vd (in vivo; [7]): 0.067 L/kg
clearance (in vivo; [7]): 4.8 mL/h/kg
half-life (in vivo; [7]): 11.5 h

SMILES: CNC(=N)NCCC[C@H](NC(=O)[C@H](CC(C)C)NC(=O)NNC(=O)[C@H](Cc1ccccc1)NC(=O)[C@@H](NC(=O)[C@H](CC(N)=O)NC(=O)[C@H](Cc1c[nH]c2ccccc12)NC(=O)[C@H](CC(N)=O)NC(=O)[C@@H](Cc1ccc(O)cc1)NC(=O)CCOCCOCCOCCOCCn1cc(CCC(=O)NCCOCCOCCOCCO[C@H]2[C@H](OC)[C@@H](OC)[C@@H](O[C@H]3[C@H](OC)[C@@H](OC)[C@H](O[C@H]4[C@H](OS(=O)(=O)O)[C@@H](OS(=O)(=O)O)[C@@H](O[C@H]5[C@H](OC)[C@@H](OC)[C@H](O[C@H]6[C@H](OC)[C@@H](OS(=O)(=O)O)[C@@H](OC)O[C@@H]6COS(=O)(=O)O)O[C@H]5C(=O)O)O[C@@H]4COS(=O)(=O)O)O[C@@H]3C(=O)O)O[C@@H]2COS(=O)(=O)O)nn1)[C@@H](C)O)C(=O)N[C@@H](Cc1ccccc1)C(N)=O [Conjugate C10]
half-life at 750 nM [1]: 121 h
EC50 (human KISS-receptor; [8]): 0.123 nM
EC50 (human KISS-receptor; [9]): 0.525 nM

SMILES: CNC(=N)NCCC[C@H](NC(=O)[C@H](CC(C)C)NC(=O)CNC(=O)[C@H](Cc1ccccc1)NC(=O)[C@@H](NC(=O)[C@H](CC(N)=O)NC(=O)[C@@H]1C[C@@H](O)CN1C(=O)[C@H](CC(N)=O)NC(=O)[C@H](Cc1ccc(O)cc1)NC(=O)CCOCCOCCOCCOCCn1cc(CCC(=O)NCCOCCOCCOCCO[C@H]2[C@H](OC)[C@@H](OC)[C@@H](O[C@H]3[C@H](OC)[C@@H](OC)[C@H](O[C@H]4[C@H](OS(=O)(=O)O)[C@@H](OS(=O)(=O)O)[C@@H](O[C@H]5[C@H](OC)[C@@H](OC)[C@H](O[C@H]6[C@H](OC)[C@@H](OS(=O)(=O)O)[C@@H](OC)O[C@@H]6COS(=O)(=O)O)O[C@H]5C(=O)O)O[C@@H]4COS(=O)(=O)O)O[C@@H]3C(=O)O)O[C@@H]2COS(=O)(=O)O)nn1)[C@@H](C)O)C(=O)N[C@@H](Cc1ccccc1)C(N)=O [Conjugate C25]
half-life at 750 nM [1]: 188 h
EC50 (human KISS-receptor; [8]): 0.372 nM
EC50 (human KISS-receptor; [9]): 1.02 nM

SMILES: CNC(=N)NCCC[C@H](NC(=O)[C@H](CC(C)C)NC(=O)NNC(=O)[C@H](Cc1ccccc1)NC(=O)[C@@H](NC(=O)[C@H](CC(N)=O)NC(=O)[C@@H]1C[C@@H](O)CN1C(=O)[C@@H](Cc1ccc(O)cc1)NC(=O)CCOCCOCCOCCOCCn1cc(CCC(=O)NCCOCCOCCOCCO[C@H]2[C@H](OC)[C@@H](OC)[C@@H](O[C@H]3[C@H](OC)[C@@H](OC)[C@H](O[C@H]4[C@H](OS(=O)(=O)O)[C@@H](OS(=O)(=O)O)[C@@H](O[C@H]5[C@H](OC)[C@@H](OC)[C@H](O[C@H]6[C@H](OC)[C@@H](OS(=O)(=O)O)[C@@H](OC)O[C@@H]6COS(=O)(=O)O)O[C@H]5C(=O)O)O[C@@H]4COS(=O)(=O)O)O[C@@H]3C(=O)O)O[C@@H]2COS(=O)(=O)O)nn1)[C@@H](C)O)C(=O)N[C@@H](Cc1c[nH]c2ccccc12)C(N)=O [Conjugate C34]
half-life at 750 nM [1]: 138 h
EC50 (human KISS-receptor; [8]): 0.0407 nM
EC50 (human KISS-receptor; [9]): 0.141 nM

SMILES: CNC(=N)NCCC[C@H](NC(=O)[C@H](CC(C)C)NC(=O)NNC(=O)[C@H](Cc1ccccc1)NC(=O)[C@@H](NC(=O)[C@H](CC(N)=O)NC(=O)[C@@H]1C[C@@H](O)CN1C(=O)[C@@H](Cc1ccc(O)cc1)NC(=O)CCOCCOCCOCCOCCn1cc(CCC(=O)NCCOCCOCCOCCO[C@H]2[C@H](OC)[C@@H](OC)[C@@H](O[C@H]3[C@H](OC)[C@@H](OC)[C@H](O[C@H]4[C@H](OS(=O)(=O)O)[C@@H](OS(=O)(=O)O)[C@@H](O[C@H]5[C@H](OC)[C@@H](OC)[C@H](O[C@H]6[C@H](OS(=O)(=O)O)[C@@H](OS(=O)(=O)O)[C@@H](OC)O[C@@H]6COS(=O)(=O)O)O[C@H]5C(=O)O)O[C@@H]4COS(=O)(=O)O)O[C@@H]3C(=O)O)O[C@@H]2COS(=O)(=O)O)nn1)[C@@H](C)O)C(=O)N[C@@H](Cc1c[nH]c2ccccc12)C(N)=O [Conjugate C35]
half-life at 750 nM [1]: > 240 h
EC50 (human KISS-receptor; [8]): 0.0427 nM
EC50 (human KISS-receptor; [9]): 1.38 nM

SMILES: CCN(CC)CCOc1ccc(C(=C(Cl)c2ccccc2)c2ccccc2)cc1 [clomiphene citrate]
ovulation rates [3]: 60%-90%
pregnancy rates [3]: 20%-40%

Continued, in another order:

EC50 (human KISS-receptor; [8]): 1.58 nM
potency (in words) (human KISS-receptor; in words): not sufficiently potent
EC50 (human KISS-receptor; [9]): 31.6 nM
SMILES: CO[C@H]1O[C@H](COS(=O)(=O)O)[C@@H](O[C@@H]2O[C@@H](C(=O)O)[C@@H](O[C@H]3O[C@H](COS(=O)(=O)O)[C@@H](O[C@@H]4O[C@H](C(=O)O)[C@@H](O[C@H]5O[C@H](COS(=O)(=O)O)[C@@H](OCCOCCOCCOCCNC(=O)CCc6cn(CCCCC(=O)N[C@@H](Cc7ccc(O)cc7)C(=O)N[C@@H](CC(N)=O)C(=O)N[C@@H](Cc7c[nH]c8ccccc78)C(=O)N[C@@H](CC(N)=O)C(=O)N[C@@H](CO)C(=O)N[C@@H](Cc7ccccc7)C(=O)NCC(=O)N[C@@H](CC(C)C)C(=O)N[C@@H](CCCNC(=N)N)C(=O)N[C@@H](Cc7ccccc7)C(N)=O)nn6)[C@H](OC)[C@H]5OC)[C@H](OC)[C@H]4OC)[C@H](OS(=O)(=O)O)[C@H]3OS(=O)(=O)O)[C@H](OC)[C@H]2OC)[C@H](OS(=O)(=O)O)[C@H]1OS(=O)(=O)O [Conjugate C42, reference compound]
half-life at 750 nM [1]: 121 h

half-life at 750 nM [1]: 5.4 h
stability (in words) [1]: not sufficiently stable
EC50 (human KISS-receptor; [8]): 0.1 nM
EC50 (human KISS-receptor; [9]): 0.0501 nM
SMILES: CNC(=N)NCCC[C@H](NC(=O)[C@H](CC(C)C)NC(=O)NNC(=O)[C@H](Cc1ccccc1)NC(=O)[C@@H](NC(=O)[C@H](CC(N)=O)NC(=O)[C@H](Cc1c[nH]c2ccccc12)NC(=O)[C@H](CC(N)=O)NC(=O)[C@H](N)Cc1ccc(O)cc1)[C@@H](C)O)C(=O)N[C@@H](Cc1ccccc1)C(N)=O [Conjugate P29, reference compound] (H-[dY]NWNTF[azaGly]L[Arg(Me)]F-NH2)

stability (in words) [1]: not sufficiently stable
EC50 (human KISS-receptor; [8]): 1 nM
EC50 (human KISS-receptor; [9]): 1 nM
SMILES: CC(C)C[C@H](NC(=O)CNC(=O)[C@H](Cc1ccccc1)NC(=O)[C@H](CO)NC(=O)[C@H](CC(N)=O)NC(=O)[C@H](Cc1c[nH]c2ccccc12)NC(=O)[C@H](CC(N)=O)NC(=O)[C@@H](N)Cc1ccc(O)cc1)C(=O)N[C@@H](CCCNC(=N)N)C(=O)N[C@@H](Cc1ccccc1)C(N)=O [Kiss-10, reference compound]
half-life in human plasma [2]: ~0.167 h
